# Test results taken from patent publication US20230118104A1, “COMPOSITIONS AND METHODS FOR TREATING PANCREATIC ENZYME DEFICIENCIES IN MAMMALS” (Vets Plus, Inc., priority 2018, published 2023).
# B1: Porcine Lipase: Lipase enzyme from porcine (protein, UniProt P00591 1-450, looked up)
# Pancreatic triacylglycerol …: SEVCFPRLGCFSDDAPWAGIVQRPLKILPWSPKDVDTRFLLYTNQNQNNYQELVADPSTITNSNFRMDRKTRFIIHGFIDKGEEDWLSNICKNLFKVESVNCICVDWKGGSRTGYTQASQNIRIVGAEVAYFVEVLKSSLGYSPSNVHVIGHSLGSHAAGEAGRRTNGTIERITGLDPAEPCFQGTPELVRLDPSDAKFVDVIHTDAAPIIPNLGFGMSQTVGHLDFFPNGGKQMPGCQKNILSQIVDIDGIWEGTRDFVACNHLRSYKYYADSILNPDGFAGFPCDSYNVFTANKCFPCPSEGCPQMGHYADRFPGKTNGVSQVFYLNTGDASNFARWRYKVSVTLSGKKVTGHILVSLFGNEGNSRQYEIYKGTLQPDNTHSDEFDSDVEVGDLQKVKFIWYNNNVINPTLPRVGASKITVERNDGKVYDFCSQETVREEVLLTLNPC
# B2: Porcine Amylase: Amylase enzyme from porcine (protein, UniProt P00690 16-511, looked up)
# Pancreatic alpha-amylase: QYAPQTQSGRTSIVHLFEWRWVDIALECERYLGPKGFGGVQVSPPNENIVVTNPSRPWWERYQPVSYKLCTRSGNENEFRDMVTRCNNVGVRIYVDAVINHMCGSGAAAGTGTTCGSYCNPGNREFPAVPYSAWDFNDGKCKTASGGIESYNDPYQVRDCQLVGLLDLALEKDYVRSMIADYLNKLIDIGVAGFRIDASKHMWPGDIKAVLDKLHNLNTNWFPAGSRPFIFQEVIDLGGEAIQSSEYFGNGRVTEFKYGAKLGTVVRKWSGEKMSYLKNWGEGWGFMPSDRALVFVDNHDNQRGHGAGGASILTFWDARLYKVAVGFMLAHPYGFTRVMSSYRWARNFVNGQDVNDWIGPPNNNGVIKEVTINADTTCGNDWVCEHRWRQIRNMVWFRNVVDGQPFANWWANGSNQVAFGRGNRGFIVFNNDDWQLSSTLQTGLPGGTYCDVISGDKVGNSCTGIKVYVSSDGTAQFSISNSAEDPFIAIHAESKL
# Key:
# Type in all cases: biochemical
# [1] = Lipase enzyme analysis, free fatty acid (Phenolphthalein) Test; details: substrate Fat / Vegetable oil; enzyme 1 mg/ml; 480 nM; n = 4
# Description: Lipase enzyme from porcine and Rhizopus oryzae at 1 mg/ml concentration and a control of no enzymes were subjected the free fatty acid (Phenolphthalein) Test followed by spectrophotometric analysis at […].
# [2] = Amylase enzyme analysis, Benedict's Test, substrate Dextrose; details: enzyme 1 mg/ml, 10 minutes, pH 7, 38° C., 580 nm, n = 4
# Description: (§1) Amylase enzyme from porcine and Bacillus amyloliquefaciens at 1 mg/ml concentration and a control of no enzymes were subjected to the Benedict's Test for 10 minutes at pH 7, 38° C., followed by spectrophotometric analysis at […].
# [3] = Amylase enzyme analysis, Benedict's Test, substrate Maltose; details: enzyme 1 mg/ml, 10 minutes, pH 7, 38° C., 580 nm, n = 4
# Description: as §1
# [4] = Amylase enzyme analysis, Benedict's Test, substrate Starch; details: enzyme 1 mg/ml, 10 minutes, pH 7, 38° C., 580 nm, n = 4
# Description: as §1
Molecule,"absorbance, free fatty acid (Phenolphthalein) Test [1]","absorbance, Benedict's Test [2]","absorbance, Benedict's Test [3]","absorbance, Benedict's Test [4]"
B1,3.17 +/− 0.11,,,
B2,,3.078 +/− 0.13,3.108 +/− 0.15,2.087 +/− 0.11
